US20200283478A1 (Genentech, published 2020)
Read-outs that look alike come from different tables or passages of the source. Square brackets hold non-standard residues; d marks the D form. * marks the point of attachment. hArg = N=C(N)NCCCC[C@H](N)C(=O)O; Pentanoyl = CCCCC(=O)*

Key:
PCSK9Δhelix [1] = biological target: T1, PCSK9Δhelix (human, UniProt Q8NBP7 31-152; Q8NBP7 168-692); assay: TR-FRET competition; competitor Ab20 binding to His-PCSK9Δhelix;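 also: readout is anti-His-APC on PCSK9 with anti-Fc-europium on the Fc-tagged ligand, compound incubated 30 min, normalized signal ratio fitted by four-parameter logistic regression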
T1 construct: Made by TEV cleavage of human PCSK9 M1-Q692 with an engineered TEV site; The new N-terminus of the catalytic domain is S-A168; also called His-PCSK9Δhelix; PCSK9 lacking the P' helix
T1 sequence (Q8NBP7 31-152, stated change not applied, chain 1 of 2): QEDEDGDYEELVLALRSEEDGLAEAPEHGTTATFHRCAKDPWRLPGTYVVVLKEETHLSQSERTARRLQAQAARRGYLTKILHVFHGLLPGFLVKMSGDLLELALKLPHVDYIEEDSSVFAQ
T1 sequence (Q8NBP7 other isoform, or with tags, fused parts or gaps mutant, chain 2 of 2): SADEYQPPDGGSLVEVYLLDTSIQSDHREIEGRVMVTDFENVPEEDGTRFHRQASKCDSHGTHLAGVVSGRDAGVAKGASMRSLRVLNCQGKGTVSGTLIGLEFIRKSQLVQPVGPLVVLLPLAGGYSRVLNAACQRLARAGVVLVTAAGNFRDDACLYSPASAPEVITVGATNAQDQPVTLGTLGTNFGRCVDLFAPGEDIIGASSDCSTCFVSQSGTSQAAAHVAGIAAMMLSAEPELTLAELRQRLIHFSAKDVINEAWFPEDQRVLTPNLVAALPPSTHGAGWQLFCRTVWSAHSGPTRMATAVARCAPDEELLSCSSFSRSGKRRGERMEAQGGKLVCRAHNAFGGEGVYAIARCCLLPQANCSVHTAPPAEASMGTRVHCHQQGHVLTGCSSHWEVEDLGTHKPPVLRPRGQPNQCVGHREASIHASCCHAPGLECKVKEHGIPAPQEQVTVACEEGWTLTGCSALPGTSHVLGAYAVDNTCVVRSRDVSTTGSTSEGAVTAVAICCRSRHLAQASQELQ

[2] = biological target: T2, PCSK9 (proprotein convertase subtilisin/kexin type 9), His-tagged, full-length (human, UniProt Q8NBP7 31-692); assay: TR-FRET competition; competitor EGF(A)-Fc binding to His-PCSK9
T2 construct: Captured by the His tag (SPR Methods 1 and 2), amine-coupled (Method 3), or His-tagged in TR-FRET; also called His-PCSK9
T2 sequence (Q8NBP7 31-692 limits assumed): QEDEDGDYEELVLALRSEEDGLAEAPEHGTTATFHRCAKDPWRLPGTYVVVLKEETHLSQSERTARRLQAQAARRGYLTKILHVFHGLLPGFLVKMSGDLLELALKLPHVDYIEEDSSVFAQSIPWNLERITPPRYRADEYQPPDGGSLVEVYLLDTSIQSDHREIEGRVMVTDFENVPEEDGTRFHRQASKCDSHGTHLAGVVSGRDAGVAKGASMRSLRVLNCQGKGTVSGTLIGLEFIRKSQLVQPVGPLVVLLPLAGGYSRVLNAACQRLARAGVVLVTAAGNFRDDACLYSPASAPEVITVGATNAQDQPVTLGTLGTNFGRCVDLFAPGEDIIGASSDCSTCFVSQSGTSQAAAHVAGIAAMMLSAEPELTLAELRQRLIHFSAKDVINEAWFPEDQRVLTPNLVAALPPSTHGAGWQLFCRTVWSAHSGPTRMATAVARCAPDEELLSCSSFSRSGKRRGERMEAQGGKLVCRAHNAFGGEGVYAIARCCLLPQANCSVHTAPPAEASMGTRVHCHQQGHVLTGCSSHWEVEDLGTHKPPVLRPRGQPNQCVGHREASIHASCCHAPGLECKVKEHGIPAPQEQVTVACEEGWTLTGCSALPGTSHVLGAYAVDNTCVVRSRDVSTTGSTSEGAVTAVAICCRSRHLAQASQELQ

PCSK9Δhelix [3] = biological target: T3, PCSK9Δhelix (human, Chemically biotinylated in the phage ELISAs; the site is not given.); assay: phage spot ELISA
T3 construct: construct M1-Q692 with engineered TEV site, cleaved by TEV; also called His-PCSK9Δhelix; open groove PCSK9Δhelix
T3 sequence (prodomain, as listed by the source mutant limits assumed, chain 1 of 2): as the sequence (Q8NBP7 31-152, stated change not applied, chain 1 of 2) above
T3 sequence (chain, as listed by the source mutant limits assumed, chain 2 of 2): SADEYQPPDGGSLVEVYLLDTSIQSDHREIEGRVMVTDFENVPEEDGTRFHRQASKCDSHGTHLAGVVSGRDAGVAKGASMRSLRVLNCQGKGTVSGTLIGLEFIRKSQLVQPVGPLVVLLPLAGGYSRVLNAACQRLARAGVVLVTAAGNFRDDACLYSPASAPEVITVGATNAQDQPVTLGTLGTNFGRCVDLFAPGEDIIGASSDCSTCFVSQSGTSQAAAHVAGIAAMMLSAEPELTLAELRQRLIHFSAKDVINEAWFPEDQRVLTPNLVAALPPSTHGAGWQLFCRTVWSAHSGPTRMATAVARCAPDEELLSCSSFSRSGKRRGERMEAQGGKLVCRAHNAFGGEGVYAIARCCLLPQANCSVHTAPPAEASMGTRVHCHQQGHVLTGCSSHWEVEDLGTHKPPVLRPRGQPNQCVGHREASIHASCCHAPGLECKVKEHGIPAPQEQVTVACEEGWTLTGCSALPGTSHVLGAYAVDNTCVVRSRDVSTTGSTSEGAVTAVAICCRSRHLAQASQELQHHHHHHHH

[4] = biological target: T4, proprotein convertase subtilisin/kexin type 9 (PCSK9) (human, UniProt Q8NBP7 31-692); assay: phage spot ELISA
T4 construct: His-tagged full-length PCSK9 in TR-FRET and SPR, biotinylated in phage ELISA; secreted protein is autoprocessed (prodomain plus catalytic/CRD chain starting at S153); also called rec.PCSK9; His-PCSK9
T4 sequence (Q8NBP7 other isoform, or with tags, fused parts or gaps limits assumed): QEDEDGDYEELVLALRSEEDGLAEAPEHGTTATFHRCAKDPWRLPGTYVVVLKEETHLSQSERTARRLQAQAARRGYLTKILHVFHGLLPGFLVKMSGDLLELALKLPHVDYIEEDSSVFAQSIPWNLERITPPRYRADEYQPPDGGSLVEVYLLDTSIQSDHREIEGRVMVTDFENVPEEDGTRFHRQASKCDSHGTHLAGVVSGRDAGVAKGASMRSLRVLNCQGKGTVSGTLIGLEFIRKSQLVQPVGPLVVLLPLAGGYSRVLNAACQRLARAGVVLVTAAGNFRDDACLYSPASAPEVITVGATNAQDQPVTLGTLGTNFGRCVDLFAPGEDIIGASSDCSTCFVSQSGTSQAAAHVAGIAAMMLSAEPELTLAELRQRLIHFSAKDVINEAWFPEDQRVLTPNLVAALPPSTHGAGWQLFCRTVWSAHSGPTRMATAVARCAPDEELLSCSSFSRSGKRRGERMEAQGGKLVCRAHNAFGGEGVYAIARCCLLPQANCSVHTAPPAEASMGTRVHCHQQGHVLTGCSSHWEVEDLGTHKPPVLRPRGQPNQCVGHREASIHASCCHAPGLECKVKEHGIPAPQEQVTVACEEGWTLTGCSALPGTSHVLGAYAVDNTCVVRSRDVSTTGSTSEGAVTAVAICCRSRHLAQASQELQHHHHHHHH

[5] = biological target: T4, proprotein convertase subtilisin/kexin …; assay: phage spot ELISA; remark: listed apart in the source

Binder	IC50 (PCSK9Δhelix [1]) [µM]	IC50 [2] [µM]	ELISA (PCSK9Δhelix [3])	s/n (PCSK9Δhelix [3])	ELISA [4]	s/n [4]	other results
Ac-DLMPWNLVRIGLLR-NH2 [Compound 35]	4.8	> 50					
Ac-DLMPWNLVRIGALR-NH2 [Compound 56]	17.1	> 50					
Ac-DLMPWALVRIGLLR-NH2 [Compound 62]	49.5	> 50					
Ac-DLMPWNLVRIGLLA-NH2 [Compound 54]	15.4	> 50					
Ac-DAMPWNLVRIGLLR-NH2 [Compound 44]	6.9	> 50					
Ac-DLMPWNLARIGLLR-NH2 [Compound 60]	19.2	> 50					
Ac-DLAPWNLVRIGLLR-NH2 [Compound 43]	8.19	> 50					
Ac-DLMPANLVRIGLLR-NH2 [Compound 41]	49.5	> 50					
Ac-DLMPWNLVAIGLLR-NH2 [Compound 59]	49.5	> 50					
Ac-DLMPWNLVRAGLLR-NH2 [Compound 58]	49.5	> 50					
Ac-DLMAWNLVRIGLLR-NH2 [Compound 42]	28.5	> 50					
Ac-DLMPWNAVRIGLLR-NH2 [Compound 61]	49.5	> 50					
Ac-DLMPWNLVRIALLR-NH2 [Compound 57]	> 49.5	> 50					
Ac-DLMPWNLVRIGLL-NH2 [Compound 46]	14	> 50					
Pentanoyl-WNLVRIGLLR-NH2 (SMILES CCCCC(=O)N[C@@H](Cc1c[nH]c2ccccc12)C(=O)N[C@@H](CC(N)=O)C(=O)N[C@@H](CC(C)C)C(=O)N[C@H](C(=O)N[C@@H](CCCNC(=N)N)C(=O)N[C@H](C(=O)NCC(=O)N[C@@H](CC(C)C)C(=O)N[C@@H](CC(C)C)C(=O)N[C@@H](CCCNC(=N)N)C(N)=O)[C@@H](C)CC)C(C)C) [Compound 111]	4.9	> 50					
Ac-DLMPWNLVRI-NH2 [Compound 49]	49.5	> 50					
Ac-DLMPWNLVRIGL-NH2 [Compound 47]	12.6	> 50					
SGDFIPWNLVRIGLLR [SEQ ID NO 385]							ELISA [5]: 0.472; s/n ratio [5]: 3.42
Ac-DLMPWNLVRIG-NH2 [Compound 48]	49.5	> 50					
Pentanoyl-WNLVRIGLTR-NH2 (SMILES CCCCC(=O)N[C@@H](Cc1c[nH]c2ccccc12)C(=O)N[C@@H](CC(N)=O)C(=O)N[C@@H](CC(C)C)C(=O)N[C@H](C(=O)N[C@@H](CCCNC(=N)N)C(=O)N[C@H](C(=O)NCC(=O)N[C@@H](CC(C)C)C(=O)N[C@H](C(=O)N[C@@H](CCCNC(=N)N)C(N)=O)[C@@H](C)O)[C@@H](C)CC)C(C)C) [Compound 112]	7.5	> 50					
Pentanoyl-WNLVRIGTTR-NH2 (SMILES CCCCC(=O)N[C@@H](Cc1c[nH]c2ccccc12)C(=O)N[C@@H](CC(N)=O)C(=O)N[C@@H](CC(C)C)C(=O)N[C@H](C(=O)N[C@@H](CCCNC(=N)N)C(=O)N[C@H](C(=O)NCC(=O)N[C@H](C(=O)N[C@H](C(=O)N[C@@H](CCCNC(=N)N)C(N)=O)[C@@H](C)O)[C@@H](C)O)[C@@H](C)CC)C(C)C) [Compound 113]		> 50					

More lines, main results first:

IC50 (PCSK9Δhelix [1]) [µM]	IC50 [2] [µM]	ELISA (PCSK9Δhelix [3])	s/n (PCSK9Δhelix [3])	ELISA [4]	s/n [4]	Binder	other results
1.4	> 50					Pentanoyl-WNLV[hArg]IGLTR-NH2 (SMILES CCCCC(=O)N[C@@H](Cc1c[nH]c2ccccc12)C(=O)N[C@@H](CC(N)=O)C(=O)N[C@@H](CC(C)C)C(=O)N[C@H](C(=O)N[C@@H](CCCCNC(=N)N)C(=O)N[C@H](C(=O)NCC(=O)N[C@@H](CC(C)C)C(=O)N[C@H](C(=O)N[C@@H](CCCNC(=N)N)C(N)=O)[C@@H](C)O)[C@@H](C)CC)C(C)C, also called n-BuC(O)-WNLV(homoR)IGLTR-NH2) [Compound 118]	
49.5	> 50					Ac-PWNLVRIGL-NH2 [Compound 119]	
		1.04	7.68	1.09	5.15	SGSYRGAWSVFGGSTD [SEQ ID NO 372]	
		2.25	8.06	3.01	5.74	SGTPEMPAML [SEQ ID NO 374]	
		1.01	10.2	0.893	8.5	SGMVYVDRGVRVFT [SEQ ID NO 368]	
		0.638	5.5	0.447	3.85	SGRNGSGYINRGIEIW [SEQ ID NO 380]	
		0.55	4.33	0.119	1.23	SGLAPTVSDS [SEQ ID NO 375]	
		1.24	11.3	2.57	11.9	SGDTRSQLSH [SEQ ID NO 376]	
		1.75	4.17	2.87	11.1	SGAGKLDLSG [SEQ ID NO 377]	
49.5	> 50					Ac-WNLVRIGL-NH2 [Compound 120]	
		0.665	7.07	0.591	6.42	SGNALWNHDRLT [SEQ ID NO 379]	
		0.461	3.71	0.458	1.45	SGEHQFYSYRGVDVYR [SEQ ID NO 370]	
	> 50					Pentanoyl-WNLVRIGTLR-NH2 (SMILES CCCCC(=O)N[C@@H](Cc1c[nH]c2ccccc12)C(=O)N[C@@H](CC(N)=O)C(=O)N[C@@H](CC(C)C)C(=O)N[C@H](C(=O)N[C@@H](CCCNC(=N)N)C(=O)N[C@H](C(=O)NCC(=O)N[C@H](C(=O)N[C@@H](CC(C)C)C(=O)N[C@@H](CCCNC(=N)N)C(N)=O)[C@@H](C)O)[C@@H](C)CC)C(C)C) [Compound 114]	
		0.649	5.55	0.607	5.19	SGACLNHFVSGNMIRC [SEQ ID NO 371]	
		1.64	7.52	2.49	15.5	SGHASKGMVLSG [SEQ ID NO 381]	
		1.64	9.01	1.41	5.32	SGGSIPWNLERITPPR [SEQ ID NO 382]	
		0.569	5.37	0.487	4.39	SGCWTYLRGGCSVT [SEQ ID NO 373]	
		0.378	3.37	0.373	3.32	SGGCVKYRGSVSCQESKT [SEQ ID NO 369]	
